The values that follow come from the supplement of paper PMC10567573.

The labels stand for the following.
B1: GAGE1 (parent)
chain: QPPEMIGPMRPEQFSDEVEPATPE
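Also: lentivirally expressed fusions sorted by FACS into six bins by GFP to DsRed ratio, PSI derived from sequencing read proportions per bin multiplied by bin number.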

In this series the parent is B1. In words: protein stability index of a GFP-peptide fusion (GPS, HEK-293T) (PSI 1-6); higher = more stable. The conditions noted are these: c terminus: a fixed tail appended.
For QPPEMIGPMRPERFSDEVEPATPE, the protein stability index amounted to 5.58.

In the case of QPPEMIGPMRPEQFSMEVEPATPE, the protein stability index turned out to be 5.32.

Turning to QPPEMIGPMRPEQFSPEVEPATPE, the protein stability index amounted to 5.66.

In the case of QPPEMIGPMRPEQFSAEVEPATPE, the protein stability index was 5.69.

On to QPPEMIGPMRPEQFSEEVEPATPE, for which the protein stability index is 3.25.

As to QPPEMIGPMRPEQFSVEVEPATPE, the protein stability index was found to be 5.54.

For the variant QPPEMIGPMRPEQFSFEVEPATPE, the protein stability index turned out to be 5.74.

In the case of QPPEMIGPMRPEQFSSEVEPATPE, the protein stability index came out at 5.31.

Turning to QPPEMIGPMRPEQFSNEVEPATPE, the protein stability index was 5.38.

With QPPEMIGPMRPEQFSIEVEPATPE, the protein stability index is 5.39.

For QPPEMIGPMRPEQFSYEVEPATPE, the protein stability index amounted to 5.43.

Consider QPPEMIGPMRPEQFSTEVEPATPE, for which the protein stability index was determined as 5.46.

In the case of QPPEMIGPMRPEQFSLEVEPATPE, the protein stability index is 5.32.

With QPPEMIGPMRPEQFSQEVEPATPE, the protein stability index was found to be 5.6.

In the case of QPPEMIGPMRPEQFSWEVEPATPE, the protein stability index was 5.24.

As to QPPEMIGPMRPEQFSCEVEPATPE, the protein stability index stood at 4.96.

With QPPEMIGPMRPEQFSHEVEPATPE, the protein stability index was determined as 5.57.

For QPPEMIGPMRPEQFSKEVEPATPE, the protein stability index is 5.51.

Turning to QPPEMIGPMRPEQFSGEVEPATPE, the protein stability index was 4.98.

As for QPPEMIGPMRPEQFSREVEPATPE, the protein stability index was determined as 5.33.

Turning to QPPEMIGPMRPEQFSDSVEPATPE, the protein stability index was 5.44.

Take QPPEMIGPMRPEQFSDTVEPATPE: the protein stability index turned out to be 5.08.

For QPPEMIGPMRPEQFSDRVEPATPE, the protein stability index was 5.34.

For the variant QPPEMIGPMRPEQFSDCVEPATPE, the protein stability index amounted to 4.91.

QPPEMIGPMRPEQFSDYVEPATPE: the protein stability index is 4.05.

As for QPPEMIGPMRPEQFSDHVEPATPE, the protein stability index stood at 5.56.

For QPPEMIGPMRPEQFSDVVEPATPE, the protein stability index came out at 4.96.

Take QPPEMIGPMRPEQFSDAVEPATPE: the protein stability index turned out to be 5.08.

For the variant QPPEMIGPMRPEQFSDQVEPATPE, the protein stability index is 5.42.

In the case of QPPEMIGPMRPEQFSDDVEPATPE, the protein stability index was 4.85.

QPPEMIGPMRPEQFSDWVEPATPE: the protein stability index came to 4.85.

For the variant QPPEMIGPMRPEQFSDNVEPATPE, the protein stability index worked out at 5.01.

For the variant QPPEMIGPMRPEQFSDLVEPATPE, the protein stability index turned out to be 5.04.

As for QPPEMIGPMRPEQFSDPVEPATPE, the protein stability index worked out at 4.73.

With QPPEMIGPMRPEQFSDIVEPATPE, the protein stability index was found to be 4.89.

Consider QPPEMIGPMRPEQFSDFVEPATPE, for which the protein stability index was 4.86.

QPPEMIGPMRPEQFSDMVEPATPE: the protein stability index was 5.16.

For the variant QPPEMIGPMRPEQFSDGVEPATPE, the protein stability index turned out to be 5.16.

QPPEMIGPMRPEQFSDKVEPATPE: the protein stability index came to 5.12.

For QPPEMIGPMRPEQFSDEVFPATPE, the protein stability index was 4.95.

Regarding QPPEMIGPMRPEQFSDEVTPATPE, the protein stability index stood at 5.17.

For the variant QPPEMIGPMRPEQFSDEVCPATPE, the protein stability index is 4.62.

Turning to QPPEMIGPMRPEQFSDEVVPATPE, the protein stability index was found to be 4.09.

Turning to QPPEMIGPMRPEQFSDEVPPATPE, the protein stability index came to 4.43.

As for QPPEMIGPMRPEQFSDEVGPATPE, the protein stability index is 4.86.

For the variant QPPEMIGPMRPEQFSDEVKPATPE, the protein stability index came to 4.42.

Regarding QPPEMIGPMRPEQFSDEVLPATPE, the protein stability index was determined as 4.04.

On to QPPEMIGPMRPEQFSDEVNPATPE, for which the protein stability index is 5.06.

Regarding QPPEMIGPMRPEQFSDEVMPATPE, the protein stability index was 4.83.

As for QPPEMIGPMRPEQFSDEVDPATPE, the protein stability index amounted to 5.25.

Consider QPPEMIGPMRPEQFSDEVRPATPE, for which the protein stability index worked out at 3.98.

Consider QPPEMIGPMRPEQFSDEVQPATPE, for which the protein stability index turned out to be 5.33.

As to QPPEMIGPMRPEQFSDEVHPATPE, the protein stability index was 5.04.

As for QPPEMIGPMRPEQFSDEVIPATPE, the protein stability index was 5.05.

Consider QPPEMIGPMRPEQFSDEVAPATPE, for which the protein stability index was 5.03.

As for QPPEMIGPMRPEQFSDEVSPATPE, the protein stability index amounted to 5.18.

On to QPPEMIGPMRPYQFSDEVEPATPE, for which the protein stability index was determined as 5.51.

With QPPEMIGPMRPMQFSDEVEPATPE, the protein stability index was 5.15.

As to QPPEMIGPMRPLQFSDEVEPATPE, the protein stability index was 5.8.

With QPPEMIGPMRPWQFSDEVEPATPE, the protein stability index is 4.88.

Take QPPEMIGPMRPCQFSDEVEPATPE: the protein stability index worked out at 5.27.

On to QPPEMIGPMRPHQFSDEVEPATPE, for which the protein stability index is 5.21.

QPPEMIGPMRPSQFSDEVEPATPE: the protein stability index was found to be 5.5.

As for QPPEMIGPMRPNQFSDEVEPATPE, the protein stability index came out at 5.46.

Take QPPEMIGPMRPPQFSDEVEPATPE: the protein stability index was 5.73.

For QPPEMIGPMRPKQFSDEVEPATPE, the protein stability index was found to be 5.15.

QPPEMIGPMRPQQFSDEVEPATPE: the protein stability index was 5.57.

Regarding QPPEMIGPMRPDQFSDEVEPATPE, the protein stability index amounted to 4.57.

As to QPPEMIGPMRPAQFSDEVEPATPE, the protein stability index is 5.33.

On to QPPEMIGPMRPRQFSDEVEPATPE, for which the protein stability index turned out to be 5.71.

In the case of QPPEMIGPMRPFQFSDEVEPATPE, the protein stability index was 5.87.

As for QPPEMIGPMRPVQFSDEVEPATPE, the protein stability index is 5.83.

QPPEMIGPMRPTQFSDEVEPATPE: the protein stability index turned out to be 5.58.

Consider QPPEMIGPMRPIQFSDEVEPATPE, for which the protein stability index amounted to 5.69.

For QPPEMIGPMRPGQFSDEVEPATPE, the protein stability index is 5.01.

In the case of QPPEMIGPMRPEQFSDECEPATPE, the protein stability index stood at 4.78.

Turning to QPPEMIGPMRPEQFSDEGEPATPE, the protein stability index was 4.72.

Regarding QPPEMIGPMRPEQFSDEHEPATPE, the protein stability index was determined as 5.26.

For QPPEMIGPMRPEQFSDEMEPATPE, the protein stability index is 4.75.

Regarding QPPEMIGPMRPEQFSDEFEPATPE, the protein stability index stood at 5.13.

On to QPPEMIGPMRPEQFSDENEPATPE, for which the protein stability index was 5.32.

Consider QPPEMIGPMRPEQFSDEIEPATPE, for which the protein stability index is 4.91.

As for QPPEMIGPMRPEQFSDEEEPATPE, the protein stability index was 4.96.

On to QPPEMIGPMRPEQFSDEYEPATPE, for which the protein stability index came to 4.22.

Regarding QPPEMIGPMRPEQFSDEQEPATPE, the protein stability index was found to be 5.35.

As to QPPEMIGPMRPEQFSDEREPATPE, the protein stability index amounted to 4.85.

Consider QPPEMIGPMRPEQFSDESEPATPE, for which the protein stability index was found to be 5.44.

Consider QPPEMIGPMRPEQFSDEDEPATPE, for which the protein stability index amounted to 4.79.

In the case of QPPEMIGPMRPEQFSDETEPATPE, the protein stability index was 4.79.

As for QPPEMIGPMRPEQFSDEPEPATPE, the protein stability index amounted to 4.85.

QPPEMIGPMRPEQFSDEWEPATPE: the protein stability index worked out at 5.04.

Take QPPEMIGPMRPEQFSDELEPATPE: the protein stability index is 4.59.

As for QPPEMIGPMRPEQFSDEKEPATPE, the protein stability index amounted to 5.12.

In the case of QPPEMIGPMRPEQFSDEAEPATPE, the protein stability index was 5.25.
